B1: KCD019 (antibody, V domains shown)
VH: QVQLQQSGAELARPGASVKMSCKASGYTFATYTIHWVKQRPGQGLEWIGYLNLRNDYTHYNQKFRDKAALTADKSSSTAYMQLSSLTSEDSAVYNCAFRLGNDRQGWYFDVWGAGTTVTVSS
VL: DIVMTQAHRFMSTSVGDRVIISCKASQDVGTAVAWYQQTPGQSPKILIYWTSTRHTGVPDRFTGSRSGTDFTLTISNVQSEDLADYFCQQYTTYPLTFGGGTKLEIK
B2: KCD011 (antibody, V domains shown)
VH: EVKLVESGGGLVQPGGSLKLSCAASGFTFSSNTMSWVRQTPEKRLEWVAYITNGGGSTYYPDTVKGRFTISRDNARNTLYLQMSSLKSEDTAMYYCARHDYYTMDYWGQGTSVTVSS
VL: DIQMTQSPSSLSASLGGKVTITCKASQDINKYIAWYQHKPGKGPRLLIHYTSTLQPGIPSRFSGSGSGRDYSFSISNLEPEDIATYYCLQYDNLLYTFGGGTKLEIK
B3: KCD056 (antibody, V domains shown)
VH: EVKLVESGGGLVQPGGSLKVSCAASGFTFSTYTMSWVRQTPEKRLEWVAYITNGGGSTYYPDTEKGRFTISRDNAKNTLYLQMSSLKSEDTAMYYCVRHDYYAMDYWGQGTSVTVSS
VL: DIQMTQSPSSLSASLGGKVTITCKASQDINKYIAWYQHKPGKGPRLLIHYTSTLQPGIPSRFSGSGSGRDYSFSISNLEPEDIATYYCLQYDNLLYTFGGGTTLEIK
B4: KCD057 (antibody, V domains shown)
VH: EVKLVESGGGLVQPGGSLKLSCAASGFTFSNYIMSWVRQTPEKRLEWVAYITNGGGATYYPDTVKGQFTISRDNAKNTLYLQMSSLKSEDTAIYYCARHDFYALDFWGQGTSVTVSS
VL: DIQMTQSPSSLSASLGGKVTITCKASQDINKYIAWYQHKPGKGPRLLIHYTSTLQPGIPSRFSGSGSGRDYSFSISNLEPEDIATYYCLKYDNLLYTFGGGTKLEIK
B5: KCD058 (antibody, V domains shown)
VH: EVKLVESGGDLVQPGGSLKLSCAASGFTFSRYIMSWVRLTPEKRLEWVAFITNGGGNTYHPDTVKGRFTISRDNANNTLYLQMSSLKSEDTAIYYCARHDYYALDYWGQGTSVTVSS
VL: DIQMTQSPSSLSASLGGKVTITCKASQDINKYIAWYQHKPGKGPRLLIHYTSTLQPGIPSRFSGSGSGRDYSFSISNLEPEDIATYYCLQYDNLLYTFGGGTKLEIK
B6: KCD066 (antibody, V domains shown)
VH: QVQLQQSAAELARPGASVKMSCKASGYTFTDYTMHWVKQRPGQGLEWIGYINPSGGYTDYNQKFKDKTALTADKSSSTAYMQLSSLTSEDSAVYYCARRRDYWFAYWGQGTLVTVSA
VL: DIVMSQSPSSLAVSVGEKVTMSCKSSQSLLYSGNQKNYLAWYQQKPGQSPKLLIYWASTRESGVPDRFTGSGSGTDFTLTISSVKAEDLAVYYCHQYYSYLTFGAGTKLELK
B7: KCD114 (antibody, V domains shown)
VH: EVQLQQSGPELVKPGASVKISCKASGYSFTAYYMNWVKQSPEKSLEWIGDINPSTGGTTYNQNFKAKATLTVDKSSSTAYMHLKSLTSEDSAVYYCATTYYSGNSYVGFAYWGQGTLVTVSA
VL: DIVMTQSHKFMSTSVGDRVSITCKASQDVSTAVAWYQQKPGQSPKLLIFWASTRHTGVPDRFTGSGSGTDYTLTISSVQAEDLALYYCQQHYSTPWTFGGGTKLEIK
B8: KCD004 (antibody, V domains shown)
VH: EVQLQQSGAELVRPGSSVKMSCKTSGKTFTSHGINWVKQRPGQGLEWIGYIYIGNGYNEYNEKFKGKATLTSDTSSSTAYMQLSSLTFEDSAIYFCVRKAYGNYGFDDWGQGTTLTVSS
VL: DIQMTQSPTSLSASLGESVSLTCRASQEISGYLNWLQQKPDGSIKRLIYAASTLDSGVPKRFSGSRSGSDYSLTISSLESEDFADYYCLQYANYPFTFGSGTKLEVK
notes: also called OG2063
B9: KCD125 (antibody, V domains shown)
VH: EVQLQQSGAELVRPGSSVKMSCKTSGNTFTSYGINWVKQRPGQGLEWIGYIYIGTGYTEYNEKFKGKATLTSDTSSSTAYMQLSSLTSEDSAIYFCVRKAYGNYGFDYWGQGTTLTVSS
VL: DIQMTQSPSSLSASLGERVSLTCRASQEISGYLSWLQQKPDGTIKRLIYAASTLDSGVPKRFSGSRSGSDYSLTISSLESEDFADYYCLQYASYPFTFGSGTKLEIK
B10: KCD126 (antibody, V domains shown)
VH: EVQLQQSGAELVRPGSSVKMSCKTSGKTFTSHGINWVKQRPGQGLEWIGYIYIGNGYNEYNEKFKGKATLTSDTSSSTAYMQLSSLTFEDSAIYFCVRKAYGNYGFDDWGQGTTLTVSS
VL: DIQMTQSPTSLSASLGESVSLTCRASQEISGNLNWLQQKPDGSIKRLIYAASTLDSGVPKRFSGSRSGSDYSLTISSLESEDFADYYCLQYANYPFTFGSGTKLEVK
B11: KCD205 (antibody, V domains shown)
VH: EVQLQQSGAELVRPGSSVKMSCKTSGNTFTSHGINWVKQRPGQGLEWIGYIYIGNGYNEYNEKFKGKATLTSDTSSSTAYMQLSSLTSEDSAIYFCVRKAYGNYGFDDWGQGTTLTVSS
VL: DIQMTQSPSSLSASLGERVSLTCRASQEISGYLSWLQQKPDGTIKRLIYAASTLDSGVPKRFSGSSSGSDYSLTISSLESDDFADYYCLQYASYPFTFGSGTKLEIK
B12: KCD212 (antibody, V domains shown)
VH: EVHLVESGGDLVKPGGSLKLSCAASGFTFSRYGMSWVRQTPDKRLEWVATISSAGSYTYYPDSVKGRFTISRDNAKNTLFLQMSSLKSEDTAMYYCARPLNYYGTSSFDYWGQGTTLTVSS
VL: QIVLTQSPAIMSASPGEKVTMTCRASSSVSSTYLHWYQQKPGSSPKLWIYSTSNLASGVPPRFSGSGSGTSYSLTISSVEAEDAATYYCQQYDSSPNTFGAGTKLELK
B13: KCD225 (antibody, V domains shown)
VH: QVQLQQSGPELVKPGASVKISCKASGYTFTDYYINWMKQRPGQGLEWIGWIFPGSDSTYYNEKFKGKATLTVDKSSSTAYMLLSSLTSEDSAVYFCARLGYYSHSYYAMDYWGQGTSVTVSS
VL: DIQMTQSPASLSVSTGETVTITCRASENIYSNLAWFQQKQGKSPQLLVYAATNLADGVPSRFSGSGSGTQYSLKITSLQSEDFGSYYCQHFWGTPLTFGAGTKLDLK
B14: KCD030 (antibody, V domains shown)
VH: QVQLQQSGAELAKPGASVKMSCKASGYTFTNYWMHWVKQRPGQGLEWIGYINPSIGYTEYNQKFKDKATLTADKSSSTAYMQLSSLTSEDSAVFYCATFIYYAMDYWGQGTSVTVSS
VL: DIQMNQSPSSLSASLGDTITITCHASQNINVWLSWYQQKPGNIPKLLIYKASNLHTGVPSRFSGSGSGTGFTLTISSLQPEDIATYYCQQGQSYPYTFGGGTKLEIK

Columns and labels:
Experiment in all cases: SPR MX96
[1] = target: T1, recombinant cynomolgus CFD, His-tagged (cynomolgus)
T1 construct: also called rcyCFD-His; recombinant Cyno-CFD

[2] = target: T2, recombinant human CFD mutant 1 (R157A, R207A), His-tagged (human, UniProt P00746 26-253)
T2 construct: positions are linear positions in the mature protein; also called rhCFD-mut1-His; Mut1
T2 sequence (P00746 26-253 R182A/R232A limits assumed): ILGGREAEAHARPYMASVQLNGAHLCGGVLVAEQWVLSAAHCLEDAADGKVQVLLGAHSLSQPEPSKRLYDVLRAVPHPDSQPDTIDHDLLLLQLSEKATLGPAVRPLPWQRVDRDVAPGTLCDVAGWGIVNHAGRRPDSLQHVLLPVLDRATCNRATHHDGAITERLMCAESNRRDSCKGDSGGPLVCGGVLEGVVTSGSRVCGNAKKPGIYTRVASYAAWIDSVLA

[3] = target: T3, human complement factor D purified from serum (human, UniProt P00746 26-253)
T3 construct: serum-purified (CompTech); also called hCFD-Comptech; CFD
T3 sequence (P00746 26-253): as the sequence (P00746 26-253 R182A/R232A limits assumed) above, with A157R, A207R counted along it

[4] = target: T4, recombinant human CFD, His-tagged (human, UniProt P00746 26-253)
T4 construct: also called rhCFD-His
T4 sequence (P00746 26-253 limits assumed): as the sequence (P00746 26-253 R182A/R232A limits assumed) above, with A157R, A207R counted along it

| Binder | Kd [1] [nM] | Kd [2] [nM] | Kd [3] [nM] | Kd [4] [nM] |
| --- | --- | --- | --- | --- |
| B1 | 47 | 180 | 7.2 | 61 |
| B2 | 38 | 110 | 77 | 59 |
| B3 | 31 | 84 | 60 | 52 |
| B4 | 3.1 | 2.5 | 2.7 | 2.7 |
| B5 | 11 | 7.6 | 9.9 | 9.4 |
| B6 | 4 | 1.2 | 2.9 | 1.9 |
| B7 | 8.4 | 8.4 | 8.1 | 3.8 |
| B8 | 0.92 | 0.14 | 0.35 | 0.24 |
| B9 | 4.1 | 2.7 | 3.8 | 2.5 |
| B10 | 0.93 | 0.18 | 0.34 | 0.29 |
| B11 | 3.3 | 1.8 | 3 | 1.9 |
| B12 | 3.8 | 0.2 | 0.47 | 0.21 |
| B13 | 46 | 6.2 | 8.7 | 5 |
| B14 | – | 1.3 | 4.2 | 3.8 |

Reference: US20180334496A1 (KODIAK SCIENCES, published 2018)
